Residue numbers refer to the chain shown, from its start. Names and notes keep the numbering of the source.

The koff is the rate constant with which the complex falls apart. Low values mean a long-lived complex, high ones a short-lived complex. By kon is commonly meant the rate constant with which the complex forms. Lower therefore signals slower complex formation.

The target in experiment [1] is T1, Human IL-18Rα ectodomain (amino acids 19-329), biotinylated (human, UniProt Q13478 19-329, biotin on the AviTag (BirA ligase)).
T1 construct: range 19-329; Secreted from insect cells (gp67 signal peptide removed); also called hIL-18Rα; hIL18Rα
T1 sequence: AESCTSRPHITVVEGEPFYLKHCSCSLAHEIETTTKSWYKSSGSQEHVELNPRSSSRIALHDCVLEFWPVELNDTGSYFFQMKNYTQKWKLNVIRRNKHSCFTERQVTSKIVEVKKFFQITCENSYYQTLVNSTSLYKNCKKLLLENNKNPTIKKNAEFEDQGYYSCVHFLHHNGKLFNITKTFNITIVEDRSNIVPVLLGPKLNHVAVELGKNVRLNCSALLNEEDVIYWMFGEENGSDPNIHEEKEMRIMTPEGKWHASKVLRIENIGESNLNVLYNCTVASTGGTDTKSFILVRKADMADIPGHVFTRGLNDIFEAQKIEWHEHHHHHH
Briefly: SPR. A general note: SPR reads the build-up and loss of mass on a sensor chip optically.

In experiment [2] the target is T1, Human IL-18Rα ectodomain (amino acids …). In words: SPR, apparent KD, first value of the cell. As for the experimental part:
(§1) Surface Plasmon Resonance (SPR) was used to perform biophysical affinity measurements of second generation DR-IL-18 variants (binding to IL-18R vs IL-18BP). Experiments were conducted using a Biacore T100 instrument and carried out at 25° C. Biotinylated IL-18Rα or IL-18BP were immobilized onto a Biacore biotin capture chip (Series S CAP sensor chip, GE Healthcare) to yield an Rmax of ˜50 RU (IL-18Rα) or ˜10 RU (IL-18BP). Measurements were made with serial dilutions of the IL-18 variants in HEPES buffered Saline-P+ buffer (10 mM HEPES pH 7.4, 150 mM NaCl, 0.005% surfactant P20). The surface was regenerated by three 60-sec injections of regeneration buffer (3/4 (v/v) 8M guanidine hydrochloride with ¼ (v/v) 1M sodium hydroxide). Experiments were performed in multiple channels simultaneously for increased observations. All data were analyzed with the Biacore T100 evaluation software version 2.0 with a 1:1 Langmuir binding model.

For experiment [3] the target is unchanged. In words: SPR, apparent KD, second value of the cell. As for the experimental part:
as §1

Experiment [4] shares this target. Briefly: SPR (Biacore T100), hIL-18Rα as surface ligand; Exp 1. As for the experimental part:
as §1

Experiment [5] shares this target. Briefly: SPR (Biacore T100), hIL-18Rα as surface ligand; Exp 2. Here is the method: as §1
For experiment [6] the target is unchanged. In words: SPR (Biacore T100), hIL-18Rα as surface ligand, 1:1 Langmuir. Here is the method:
as §1

Experiment [7] shares this target. In words: on-yeast binding isotherm (flow cytometry), drawn summary table, IL18Rα (KD). Here is the method: Individual colonies of IL-18 yeast were grown overnight at 30° C. in SDCAA liquid media and induced in SGCAA liquid media for 1 day at 20° C. IL-18 display levels on yeast were verified by flow cytometry using an anti-cMyc tag antibody (anti-myc-PE; Cell Signaling Technologies). Receptor staining with biotinylated IL-18Rα (with or without IL-18R β) or biotinylated IL-18BP was performed in PBS supplemented with 0.5% BSA and 2 mM EDTA (PBE) on ice. All analysis was performed on a Sony SA3800 flow cytometer.
In general terms: In flow cytometry, cells or beads pass a laser one at a time.

Experiment [8] concerns the target T2, Human IL-18BP (amino acids 31-194), biotinylated (human, UniProt O95998 31-194, biotin on the AviTag (BirA ligase) where used biotinylated).
T2 construct: Soluble decoy receptor; also called hIL-18BP; recombinant IL-18BP
T2 sequence: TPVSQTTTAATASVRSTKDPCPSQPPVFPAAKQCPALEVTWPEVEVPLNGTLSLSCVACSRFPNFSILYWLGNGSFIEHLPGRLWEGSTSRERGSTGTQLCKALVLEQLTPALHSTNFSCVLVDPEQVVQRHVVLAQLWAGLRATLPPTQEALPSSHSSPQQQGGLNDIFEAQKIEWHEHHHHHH
In words: SPR; KD(IL-18BP)/KD(IL-18Rα) normalized to WT IL-18; SPR; ratio from the bound KD BP >10,000 nM. As for the experimental part:
as §1

Experiment [9] has as its target T2, Human IL-18BP (amino acids 31-194), …. In words: on-yeast binding isotherms; 20 µM used for NBD; printed without '>'; yeast-displayed variant; ratio computed with 20 µM put in for NBD.
The target is the same in experiment [10]. In words: on-yeast binding isotherms; KD ratio relative to WT IL-18; yeast-displayed variant; ratio normalized to WT, from the 20 µM placeholder.
Experiment [11] addresses T3, IL-18 receptor (IL-18Rα / IL-18Rβ heterodimer) on HEK-Blue IL-18 reporter cells (UniProt Q13478 19-541; O95256 20-599, limits assumed).
T3 sequence (looked up) 1: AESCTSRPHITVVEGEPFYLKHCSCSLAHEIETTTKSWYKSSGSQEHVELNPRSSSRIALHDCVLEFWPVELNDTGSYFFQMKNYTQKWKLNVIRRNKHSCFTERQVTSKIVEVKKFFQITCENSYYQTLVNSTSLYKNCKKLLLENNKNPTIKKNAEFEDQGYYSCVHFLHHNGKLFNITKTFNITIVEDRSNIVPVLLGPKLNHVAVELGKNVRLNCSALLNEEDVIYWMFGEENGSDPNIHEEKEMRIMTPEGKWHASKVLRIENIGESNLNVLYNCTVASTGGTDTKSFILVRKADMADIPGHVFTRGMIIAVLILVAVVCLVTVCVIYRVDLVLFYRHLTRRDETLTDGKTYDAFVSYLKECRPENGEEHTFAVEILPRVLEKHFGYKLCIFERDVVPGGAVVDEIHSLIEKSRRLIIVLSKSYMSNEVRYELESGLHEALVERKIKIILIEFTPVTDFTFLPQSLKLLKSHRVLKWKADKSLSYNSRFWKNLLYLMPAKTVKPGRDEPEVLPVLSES
T3 sequence (looked up) 2: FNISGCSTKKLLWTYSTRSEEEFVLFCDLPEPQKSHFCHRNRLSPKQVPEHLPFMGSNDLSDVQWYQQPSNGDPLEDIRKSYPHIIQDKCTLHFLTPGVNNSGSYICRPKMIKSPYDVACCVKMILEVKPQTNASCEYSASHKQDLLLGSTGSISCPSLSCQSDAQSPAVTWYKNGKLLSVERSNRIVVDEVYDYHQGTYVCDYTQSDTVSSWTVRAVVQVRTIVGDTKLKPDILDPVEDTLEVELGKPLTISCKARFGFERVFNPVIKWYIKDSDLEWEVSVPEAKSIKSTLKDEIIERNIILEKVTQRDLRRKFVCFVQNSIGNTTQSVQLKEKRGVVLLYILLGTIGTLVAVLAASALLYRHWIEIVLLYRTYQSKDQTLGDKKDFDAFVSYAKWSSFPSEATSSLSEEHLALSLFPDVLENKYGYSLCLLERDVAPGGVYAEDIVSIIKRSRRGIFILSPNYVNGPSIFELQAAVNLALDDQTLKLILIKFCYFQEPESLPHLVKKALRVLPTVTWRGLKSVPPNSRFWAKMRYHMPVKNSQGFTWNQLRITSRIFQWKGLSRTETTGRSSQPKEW
Briefly: cell-based or functional assay.

In experiment [12] the target is T2, Human IL-18BP (amino acids 31-194), …. In words: on-yeast binding isotherm (flow cytometry), drawn summary table, column IL18BP (KD).

B1: SEQ ID NO: 87 (second generation human DR-IL-18 variant 6-31) (ligand)
chain: YFGKLESKLSVIRNLNDQVLFIDQGNRPLFEDMTDSDCRDNAPRTIFIISKYGDSGARGLAVTISVKCEKISTLSCENKIISFKEMNPPDNIKDTKSDIIFFERDVPGHSGKVQFESSSYEGYFLACEKERDLFKLILKKEDELGDRSIMFTVQNED
notes: Engineered variant; recombinant soluble analyte in SPR and cell assays
Consider B1, for which the Kd in experiment [1] was 19.4 nM; in experiment [2] it was 15.2 nM; in experiment [3], 19.4 nM; in experiment [4] it was 19.4 nM; in [5] it was 15.2 nM; in experiment [7] it was 41 nM. The same molecule gave a koff in experiment [6] of 0.00332 s⁻¹. The same molecule registered a kon in experiment [6] of 218000 M⁻¹ s⁻¹. In experiment [8], the “IL-18 BP:Rα Dissociation Constant Ratio” value was over 1.06e+06. Moreover, the “KD ratio IL-18BP/IL-18Rα” value in [9] is over 490. Further, the “Dissociation Constant Ratio normalized to WT IL-18” value in experiment [10] is over 7200.

B2: SEQ ID NO: 16 (SEQ ID NO: 89 plus C38S/C68G) (ligand)
chain: B1 chain with C38S, G53S, G56L, C68G, E103Q, G111R, V113M
As to B2, in experiment [11], the “EC50-#1 (M), HEK-Blue reporter” value was found to be 2.05e-10 M and the “EC50-#2 (M), HEK-Blue reporter” value worked out at 1.54e-10 M.

B3: SEQ ID NO: 6 (SEQ ID NO: 89 plus C38S/C68S) (ligand)
chain: B1 chain with C38S, G53S, G56L, C68S, E103Q, G111R, V113M
Consider B3, for which, in [11], the “EC50-#1 (M), HEK-Blue reporter” value amounted to 1.96e-10 M and the “EC50-#2 (M), HEK-Blue reporter” value was determined as 1.3e-10 M.

B4: SEQ ID NO: 21 (SEQ ID NO: 89 plus C38S/C68N) (ligand)
chain: B1 chain with C38S, G53S, G56L, C68N, E103Q, G111R, V113M
Turning to B4, in experiment [11], the “EC50-#1 (M), HEK-Blue reporter” value is 1.28e-10 M and the “EC50-#2 (M), HEK-Blue reporter” value was 1.24e-10 M.

B5: SEQ ID NO: 18 (SEQ ID NO: 89 plus C38S/C68V) (ligand)
chain: B1 chain with C38S, G53S, G56L, C68V, E103Q, G111R, V113M
For B5, in experiment [11], the “EC50-#1 (M), HEK-Blue reporter” value was 5.19e-11 M and the “EC50-#2 (M), HEK-Blue reporter” value turned out to be 4.48e-11 M.

B6: SEQ ID NO: 20 (SEQ ID NO: 89 plus C38S/C68E) (ligand)
chain: B1 chain with C38S, G53S, G56L, C68E, E103Q, G111R, V113M
For B6, in experiment [11], the “EC50-#1 (M), HEK-Blue reporter” value turned out to be 1.35e-10 M and the “EC50-#2 (M), HEK-Blue reporter” value stood at 1.62e-10 M.

B7: SEQ ID NO: 17 (SEQ ID NO: 89 plus C38S/C68A) (ligand)
chain: B1 chain with C38S, G53S, G56L, C68A, E103Q, G111R, V113M
With B7, in experiment [11], the “EC50-#1 (M), HEK-Blue reporter” value was 1.41e-10 M and the “EC50-#2 (M), HEK-Blue reporter” value worked out at 1.09e-10 M.

B8: SEQ ID NO: 99 (human D2D IL-18 variant hD2D-5F01) (ligand)
chain: HFGKLESKLSVIRNLNGQVLFIDQGNRPLFTDMTSSDCRDKAPRTIFIISFYKDSQPRGLAVTISVKCEKISTLSCENKIISFKEMNPPDNIKDTKSDIIFFLRSVPGPDNKFQFESSSYEGYFLACEKERDLFKLILKKEDELGDRSIMFTVQNED
notes: Engineered decoy-to-the-decoy variant
The molecule B8 yielded a Kd in experiment [12] of 4.8 nM.

B9: SEQ ID NO: 101 (human D2D IL-18 variant hD2D-5E08) (ligand)
chain: B8 chain with H1Y, S35A, D37P, K41N, P109H, F113I, D132S
notes: as for B8
The molecule B9 showed a Kd in [12] of 8.8 nM.

B10: SEQ ID NO: 98 (human D2D IL-18 variant hD2D-5F02) (ligand)
chain: B8 chain with T31G, T34E, S35A, D37P, K41N, L60M, L103I, P109A, F113L
notes: as for B8
Regarding B10, in [12], the Kd was 5.4 nM.

B11: SEQ ID NO: 120 (human D2D IL-18 variant hD2D-5B02) (ligand)
chain: B8 chain with H1Y, T31A, S36K, D37R, K41N, F51L, L60F, L103I, P109H, F113I
notes: as for B8
Turning to B11, in [12], the Kd stood at 4.2 nM.

B12: SEQ ID NO: 124 (human D2D IL-18 consensus hD2D-CS2) (ligand)
chain: B8 chain with H1Y, T31A, K41N, L60M, P109H, F113M
notes: as for B8
B12 showed a Kd in experiment [12] of 7.9 nM.

B13: SEQ ID NO: 94 (human D2D IL-18 variant hD2D-5F10) (ligand)
chain: B8 chain with T31A, T34E, S35A, D37P, K41N, P109H, F113M
notes: as for B8
Molecule B13 yielded a Kd in [12] of 6.4 nM.

B14: SEQ ID NO: 123 (human D2D IL-18 consensus hD2D-CS1) (ligand)
chain: B8 chain with H1Y, T31A, S35D, K41N, F51M, L60M, P109H, F113M
notes: as for B8
In experiment [12], B14 had a Kd of 5.9 nM.

B15: SEQ ID NO: 125 (human D2D IL-18 consensus hD2D-CS3) (ligand)
chain: B8 chain with H1Y, T31A, T34E, K41N, P109H, F113M
notes: as for B8
In turn, B15 gave a Kd in experiment [12] of 8.9 nM.
